Experimental findings from the Human Domainome abundance scans (Beltran et al. 2025) are described below.

To fix the notation:
B1: Mineralocorticoid receptor, residues 600 to 675; numbered along this chain, P08235 (parent)
chain: SKICLVCGDEASGCHYGVVTCGSCKVFFKRAVEGQHNYLCAGRNDCIIDKIRRKNCPACRLQKCLQAGMNLGARKS

± gives the uncertainty stated by the source.

This data set covers variants of B1. Description: abundance fitness (aPCA) (normalised: wild type 0, dead -1); higher = more abundant; growth selection in yeast, the domain comes from the species named. To be noted: Homo sapiens.
Take SKICLVCGDEASGCHYGVVTCGSHKVFFKRAVEGQHNYLCAGRNDCIIDKIRRKNCPACRLQKCLQAGMNLGARKS [C24H]: the abundance fitness is -0.67 ± 0.28.
As for SKICLVCGDEASGCHYGVVTCGSNKVFFKRAVEGQHNYLCAGRNDCIIDKIRRKNCPACRLQKCLQAGMNLGARKS [C24N], the figure is -0.632 ± 0.17; as for SKICLVCGDEASGCHYGVVTCGSAKVFFKRAVEGQHNYLCAGRNDCIIDKIRRKNCPACRLQKCLQAGMNLGARKS [C24A], -0.983 ± 0.15; as for SKICLVCGDEASGCHYGVVTCGSWKVFFKRAVEGQHNYLCAGRNDCIIDKIRRKNCPACRLQKCLQAGMNLGARKS [C24W], -1.11 ± 0.19.
As for SKICLVCGDEASGCHYGVVTCGSVKVFFKRAVEGQHNYLCAGRNDCIIDKIRRKNCPACRLQKCLQAGMNLGARKS [C24V], the abundance fitness is -1.01 ± 0.13.
As for SKICLVCGDEASGCHYGVVTCGSSKVFFKRAVEGQHNYLCAGRNDCIIDKIRRKNCPACRLQKCLQAGMNLGARKS [C24S], the figure is -0.867 ± 0.14.
For SKICLVCGDEASGCHYGVVTCGSPKVFFKRAVEGQHNYLCAGRNDCIIDKIRRKNCPACRLQKCLQAGMNLGARKS [C24P], the abundance fitness was -0.878 ± 0.2.
With SKICLVCGDEASGCHYGVVTCGSEKVFFKRAVEGQHNYLCAGRNDCIIDKIRRKNCPACRLQKCLQAGMNLGARKS [C24E], the abundance fitness was -1.03 ± 0.19.
As for SKICLVCGDEASGCHYGVVTCGSMKVFFKRAVEGQHNYLCAGRNDCIIDKIRRKNCPACRLQKCLQAGMNLGARKS [C24M], the figure is -1.04 ± 0.24; as for SKICLVCGDEASGCHYGVVTCGSRKVFFKRAVEGQHNYLCAGRNDCIIDKIRRKNCPACRLQKCLQAGMNLGARKS [C24R], -0.855 ± 0.11.
For SKICLVCGDEASGCHYGVVTCGSDKVFFKRAVEGQHNYLCAGRNDCIIDKIRRKNCPACRLQKCLQAGMNLGARKS [C24D], the abundance fitness is -0.252 ± 0.18.
As for SKICLVCGDEASGCHYGVVTCGSQKVFFKRAVEGQHNYLCAGRNDCIIDKIRRKNCPACRLQKCLQAGMNLGARKS [C24Q], the figure is -1 ± 0.44; as for SKICLVCGDEASGCHYGVVTCGSLKVFFKRAVEGQHNYLCAGRNDCIIDKIRRKNCPACRLQKCLQAGMNLGARKS [C24L], -0.581 ± 0.092.
Consider SKICLVCGDEASGCHYGVVTCGSKKVFFKRAVEGQHNYLCAGRNDCIIDKIRRKNCPACRLQKCLQAGMNLGARKS [C24K], for which the abundance fitness is -1.03 ± 0.34.
On to SKICLVCGDEASGCHYGVVRCGSCKVFFKRAVEGQHNYLCAGRNDCIIDKIRRKNCPACRLQKCLQAGMNLGARKS [T20R], for which the abundance fitness is -0.75 ± 0.085.
As for SKICLVCGDEASGCHYGVVWCGSCKVFFKRAVEGQHNYLCAGRNDCIIDKIRRKNCPACRLQKCLQAGMNLGARKS [T20W], the figure is -0.325 ± 0.061; as for SKICLVCGDEASGCHYGVVVCGSCKVFFKRAVEGQHNYLCAGRNDCIIDKIRRKNCPACRLQKCLQAGMNLGARKS [T20V], 0.032 ± 0.046; as for SKICLVCGDEASGCHYGVVSCGSCKVFFKRAVEGQHNYLCAGRNDCIIDKIRRKNCPACRLQKCLQAGMNLGARKS [T20S], -0.017 ± 0.049.
Turning to SKICLVCGDEASGCHYGVVTCISCKVFFKRAVEGQHNYLCAGRNDCIIDKIRRKNCPACRLQKCLQAGMNLGARKS [G22I], the abundance fitness is -0.259 ± 0.1.
As for SKICLVCGDEASGCHYGVVTCHSCKVFFKRAVEGQHNYLCAGRNDCIIDKIRRKNCPACRLQKCLQAGMNLGARKS [G22H], the figure is -0.109 ± 0.12; as for SKICLVCGDEASGCHYGVVTCYSCKVFFKRAVEGQHNYLCAGRNDCIIDKIRRKNCPACRLQKCLQAGMNLGARKS [G22Y], -0.222 ± 0.12.
As for SKICLVCGDEASGCHYGVVTCDSCKVFFKRAVEGQHNYLCAGRNDCIIDKIRRKNCPACRLQKCLQAGMNLGARKS [G22D], the figure is 0.008 ± 0.11; as for SKICLVCGDEASGCHYGVVTCNSCKVFFKRAVEGQHNYLCAGRNDCIIDKIRRKNCPACRLQKCLQAGMNLGARKS [G22N], -0.236 ± 0.1; as for SKICLVCGDEASGCHYGVVTCESCKVFFKRAVEGQHNYLCAGRNDCIIDKIRRKNCPACRLQKCLQAGMNLGARKS [G22E], -0.017 ± 0.055.
SKICLVCGDEASGCHYGVVTCMSCKVFFKRAVEGQHNYLCAGRNDCIIDKIRRKNCPACRLQKCLQAGMNLGARKS [G22M]: the abundance fitness is -0.035 ± 0.055.
Regarding SKICLVCGDEASGCHYGVVTCWSCKVFFKRAVEGQHNYLCAGRNDCIIDKIRRKNCPACRLQKCLQAGMNLGARKS [G22W], the abundance fitness is -0.088 ± 0.05.
On to SKICLVCGDEASGCHYGVVTCSSCKVFFKRAVEGQHNYLCAGRNDCIIDKIRRKNCPACRLQKCLQAGMNLGARKS [G22S], for which the abundance fitness was -0.058 ± 0.052.
As for SKICLVCGDEASGCHYGVVTCRSCKVFFKRAVEGQHNYLCAGRNDCIIDKIRRKNCPACRLQKCLQAGMNLGARKS [G22R], the figure is -0.103 ± 0.037; as for SKICLVCGDEASGCHYGVVTCKSCKVFFKRAVEGQHNYLCAGRNDCIIDKIRRKNCPACRLQKCLQAGMNLGARKS [G22K], -0.063 ± 0.059; as for SKICLVCGDEASGCHYGVVTCLSCKVFFKRAVEGQHNYLCAGRNDCIIDKIRRKNCPACRLQKCLQAGMNLGARKS [G22L], -0.094 ± 0.047.
As to SKICLVCGDEASGCHYGVVTCCSCKVFFKRAVEGQHNYLCAGRNDCIIDKIRRKNCPACRLQKCLQAGMNLGARKS [G22C], the abundance fitness was -0.178 ± 0.072.
As to SKICLVCGDEASGCHYGVVTCVSCKVFFKRAVEGQHNYLCAGRNDCIIDKIRRKNCPACRLQKCLQAGMNLGARKS [G22V], the abundance fitness is -0.093 ± 0.041.
As for SKICLVCGDEASGCHYGVVTCTSCKVFFKRAVEGQHNYLCAGRNDCIIDKIRRKNCPACRLQKCLQAGMNLGARKS [G22T], the figure is -0.11 ± 0.064.
As to SKICLVCGDEASGCHYGVVTCQSCKVFFKRAVEGQHNYLCAGRNDCIIDKIRRKNCPACRLQKCLQAGMNLGARKS [G22Q], the abundance fitness is -0.16 ± 0.06.
As for SKICLVCGDEASGCHYGVVTCASCKVFFKRAVEGQHNYLCAGRNDCIIDKIRRKNCPACRLQKCLQAGMNLGARKS [G22A], the abundance fitness was -0.013 ± 0.044.
As for SKICLVCGDEASGCHYGVVTCPSCKVFFKRAVEGQHNYLCAGRNDCIIDKIRRKNCPACRLQKCLQAGMNLGARKS [G22P], the figure is -0.054 ± 0.066.
